Measured values published in patent US20050054090A1 (Scripps Research, published 2005).

Molecular target: T1, murine IA^d MHC class II heterodimer expressed on the surface of Drosophila S2 cells (murine, UniProt P04228 24-256; P01921 28-265)
T1 construct: whole, on cells; Expressed without peptide on Drosophila S2 cells, alone or with accessory molecules; also called H2-A^d; recombinant MHC class II
T1 sequence (MHC II alpha, looked up): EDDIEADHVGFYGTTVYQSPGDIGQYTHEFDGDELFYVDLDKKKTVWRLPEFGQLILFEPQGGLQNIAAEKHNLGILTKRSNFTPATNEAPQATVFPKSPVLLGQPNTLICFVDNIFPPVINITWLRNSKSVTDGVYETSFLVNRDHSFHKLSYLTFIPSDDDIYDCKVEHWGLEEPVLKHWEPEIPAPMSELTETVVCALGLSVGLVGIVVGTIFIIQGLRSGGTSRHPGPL
T1 sequence (MHC II beta, looked up): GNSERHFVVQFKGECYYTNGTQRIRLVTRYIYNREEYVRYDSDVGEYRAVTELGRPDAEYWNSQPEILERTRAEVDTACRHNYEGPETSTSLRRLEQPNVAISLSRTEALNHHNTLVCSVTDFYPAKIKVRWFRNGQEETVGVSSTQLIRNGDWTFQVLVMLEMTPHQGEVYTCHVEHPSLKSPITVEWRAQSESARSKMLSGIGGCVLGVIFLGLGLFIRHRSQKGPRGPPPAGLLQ
Assay: inferred by the filing from OVA-peptide-dose-dependent T cell proliferation with peptide-loaded Drosophila APC; no direct binding assay
Description: Proliferation is assayed as described in Example 5. The proliferation is measured in counts per minute (cpm)×1000 as plotted on the Y-axis against increasing concentrations of OVA peptide in μM on the X-axis. […] Proliferative responses with recombinant MHC class II alone are shown in the line having closed circles. Those with MHC class II combined with either costimulatory molecules B7.1 or B7.2 are shown respectively with lines having open and closed squares.
The effect of peptide presentation in the presence of MHC class II with and without accessory molecules, B7.1, B7.2 or B7.2 plus ICAM-1, was first assessed in a proliferation assay performed as described by Webb et al., Cell, 63:1249 (1990). Briefly, 5×10⁴ CD4⁺ T cells were cultured in microtiter wells with 5×10⁴ Drosophila cells in 300 μl of culture medium. Eighteen hours prior to harvesting, 100 μl of supernatant were removed for cytokine analysis and 1 μCi of ³H-thymidine was added to each well. At the times indicated (3, 4 or 5 days), the wells were individually harvested onto glass fiber filters and counted in a liquid scintillation counter.

B1: ovalbumin323-339 (OVA) peptide (peptide)
peptide: ISQAVHAAHAEINEAGR
notes: Chemically synthesized by T-BOC chemistry and added to the cultures; also called ovalbumin peptide 323-339
binding result: binds
